B1: THAP1; numbered along this chain (parent)
chain: MVQSCSAYGCKNRYDKDKPVSFHKFPLTRPSLCKEWEAAVRRKNFKPTKYSSICSEHFTPDCFKRECNNKLLKENAVPTIFLCTEPHDKKEDLLEPQEQLPPPPLPPPVSQVDAAIGLLMPPLQTPVNLSVFCDHNYTVEDTMHQRKRIHQLEQQVEKLRKKLKTAQQRCRRQERQLEKLKEVVHFQKEKDDVSERGYVILPNDYFEIVEVPA

Variants of: B1
Assay: THAP1 transcriptional activity (GFP+/GFP- enrichment relative to wild-type constructs) (ratio to WT); higher = more THAP1 activity (PSMB5 reporter activation)
Conditions: with PSMB5 promoter-GFP reporter
Outline: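 A lentiviral site-saturation library covering residues 2–213 of human THAP1, with each position changed to all 20 amino acids, was transduced in duplicate at MOI ~0.3 into THAP1-knockout HEK-293T cells with mClover3 knocked in at endogenous PSMB5. Five days later, BFP+ cells were sorted into GFP-dim and GFP-bright bins and variants were counted by Illumina sequencing of genomic DNA amplicons. Activity is the bright/dim read fold change averaged over replicates and divided by the mean of wild-type synonymous constructs.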

Variant | THAP1 transcriptional activity
A76N | 0.121
A76W | 0.386
V2H | 0.247
V2W | 0.109
V2R | 0.122
K89M | 0.476
K89P | 0.989
Q155S | 0.563
Q155I | 0.473
K190V | 1.21
K190C | 1.06
S55A | 0.112
I149Q | 0.327
I149K | 0.403
D191H | 0.987
D191K | 1.22
D191A | 1.23
T125A | 1.2
T125I | 0.437
T125D | 0.713
T125E | 1.1
A7Y | 0.218
P30I | 0.278
P30H | 0.384

Variant | THAP1 transcriptional activity
F132M | 1.06
F132S | 0.452
F132N | 0.635
F132P | 0.285
S110L | 0.361
S110Y | 0.394
K49F | 0.122
K49Q | 0.317
V131N | 0.494
V131P | 0.75
P26S | 0.0994
F45G | 0.0858
F25L | 0.117
F25Y | 0.203
F25W | 0.156
F25S | 0.0861
K46L | 0.23
K46N | 0.295
K46W | 0.148
R148A | 0.487
D141A | 0.37
T142F | 0.386
T142M | 0.188
T142S | 0.66

Variant | THAP1 transcriptional activity
R13F | 0.14
R13K | 0.211
R13V | 0.185
R13S | 0.133
R13A | 0.17
R172S | 0.428
R172H | 0.458
N136E | 0.14
N136K | 0.142
N136I | 0.149
N136W | 0.0779
C62D | 1.01
L27Q | 0.235
L27I | 0.729
L27C | 0.14
K162T | 0.273
K162I | 0.164
K162D | 0.27
K162W | 0.206
K162S | 0.461
L32K | 0.267
A213E | 0.81
K34D | 0.207
K34G | 0.217

Variant | THAP1 transcriptional activity
C33T | 0.142
M120E | 1.25
M120F | 0.651
A115F | 0.278
H87S | 2.01
P19A | 0.691
P19W | 0.162
V183P | 0.678
V183Q | 1.52
V183E | 0.876
K11I | 0.265
S194V | 1.06
S194M | 0.847
E91V | 0.513
E91G | 1.01
E91I | 0.999
Q151S | 0.793
I116Y | 0.918
I116V | 1.05
P86C | 0.542
P86V | 1.04
S31L | 1.21
K147I | 0.346
K147M | 0.271

Variant | THAP1 transcriptional activity
V156W | 0.284
V156P | 0.0732
P122C | 0.319
L163Q | 0.17
C83V | 1.41
C83M | 0.953
C83G | 1.18
L72Y | 0.172
L72G | 0.189
L177H | 0.327
R65V | 0.559
R65A | 0.63
R65I | 0.626
L152S | 0.211
L152N | 0.287
L119Y | 0.443
K90F | 0.963
V193D | 0.999
Q167V | 0.351
Q167L | 0.245
D192S | 0.615
D192E | 0.835
L123D | 1.45
I53H | 0.1

Variant | THAP1 transcriptional activity
I53D | 0.133
N128A | 0.714
N128S | 0.395
P106T | 1.33
P106F | 0.72
N75I | 0.302
N75A | 0.373
D61V | 0.101
P101I | 1.27
Q124A | 0.569
Q124I | 0.516
Q124C | 0.587
Q124H | 0.399
Y8E | 0.484
C170L | 0.894
C170W | 0.208
T59F | 0.186
T59A | 0.736
T59H | 0.511
T59I | 0.147
T59R | 0.426
A39W | 0.289
P121V | 0.207
P121C | 0.259

Variant | THAP1 transcriptional activity
P121G | 0.454
P121Q | 0.491
P121A | 1.18
L129R | 1.86
F22P | 0.132
E66F | 0.996
E66Y | 0.777
E66Q | 0.814
K181W | 0.418
K181P | 0.152
K181E | 0.582
D204S | 1.82
S52C | 1.57
S52A | 1.55
S52P | 0.096
Q3C | 0.269
Q3V | 0.563
P126S | 1.11
R196A | 0.861
A114W | 0.317
A114G | 0.748
A114C | 0.678
K64P | 0.104

Reference: the supplement of paper PMC11811203
